Reference: patent US20070185028A1, “Compositions and methods for treatment of protein misfolding and protein aggregation diseases” (priority 2004, published 2007)

How the values were obtained:
βL crystallin = assay: Chaperone assay, thermal aggregation of βL crystallin; type: biochemical; conditions: 1:10 target protein:peptide; light scattering 340 nm
Protocol: Chaperone Assays. Chaperone assays of the five peptides were performed using previously established methods with minor modifications. Muchowski et al., J Mol Biol 289: 397-411, 1999. A 1:1 monomeric molar ratio of chaperone:target protein was determined to be the optimum ratio and all subsequent chaperone assays of the β3 mutants were performed in triplicate and at a 1:1 monomeric molar ratio of chaperone:target protein in a 96-well ELISA micro-titer plate. […] of the chaperone and βL crystallin were mixed in a total volume of 200 μl buffer (5 mM PBS, pH 7.0). Light scattering at λ=340 nm was measured using a Multiskan MCC/340 plate reader before heating (time=0). After the first reading, the plate was heated at 50° C. and readings were taken at fifteen minute intervals for one hour.
The ability of the peptides to suppress the thermal aggregation of βL crystallin was measured spectrophotometrically as light scattering at λ=340 nm from solutions containing 1:10 monomeric molar ratio of target protein:peptide.

[1] = target: T1, porcine citrate synthase (CS) (Sus scrofa, UniProt P00889); assay: αB crystallin protein pin array with citrate synthase; type: binding; conditions: CS as target protein in the pin array
T1 construct: purchased Roche Diagnostics, IN 103 381
T1 sequence (P00889 28-464): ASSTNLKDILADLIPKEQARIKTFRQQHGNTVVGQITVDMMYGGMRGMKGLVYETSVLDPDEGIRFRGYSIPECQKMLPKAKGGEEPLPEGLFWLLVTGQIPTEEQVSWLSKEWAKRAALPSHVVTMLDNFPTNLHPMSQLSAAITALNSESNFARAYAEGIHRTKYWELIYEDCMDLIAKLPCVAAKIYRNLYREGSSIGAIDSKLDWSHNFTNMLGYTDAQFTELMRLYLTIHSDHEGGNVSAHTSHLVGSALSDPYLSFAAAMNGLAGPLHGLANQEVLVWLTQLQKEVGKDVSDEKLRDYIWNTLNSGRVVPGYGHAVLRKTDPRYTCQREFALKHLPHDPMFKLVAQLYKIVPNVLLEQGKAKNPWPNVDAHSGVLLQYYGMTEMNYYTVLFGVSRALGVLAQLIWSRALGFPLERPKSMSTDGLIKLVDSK
Text: Synthesis of Pins, binding and detection of peptides binding to ligand proteins. The αB crystallin protein pin array was used to measure the interaction between peptides and chaperone target proteins including bovine βH crystallin, human γD crystallin, equine alcohol dehydrogenase (ADH) and porcine citrate synthase (CS) as described (FIG. 12). Ghosh and Clark, Protein Sci 14: 684-95, 2005.
Refer to the methods section for detailed protocols. The absorbance corresponding to the blue coloration in each well was measured at λ=450 nm and plotted against the amino acid sequence of the corresponding peptide in that well (FIGS. 13 and 14). Wells containing peptides that have strong interactions with target proteins are dark blue and wells containing peptides that have weak or no interaction with target proteins are light blue or clear.
The purity of the target proteins used in the pin array assays, bovine βH crystallin, human γD crystallin, equine alcohol dehydrogenase (ADH) and porcine citrate synthase (CS) were determined to be >90% by SDS-PAGE. In addition, primary antibodies for each target protein were specific to that target protein and consequently contaminating proteins that may bind to the peptides will not be detected. Eighty-four sequential and overlapping peptide fragments corresponding to residues 1-175 of human αB crystallin were synthesized employing a simultaneous peptide synthesis strategy developed by Geysen, called Multipin Peptide Synthesis (Mimotopes, San Diego, Calif.). Geysen, Southeast Asian J Trop Med Public Health 21: 523-33, 1990; Chin et al., J Org Chem 62: 538-539, 1997. Peptides were immobilized on derivatized polyethylene pins arranged in a microtiter ELISA plate format. Each peptide was eight amino acids in length and consecutive peptides were offset by two amino acids. All peptides were bound covalently to the surface of the plastic pins. The first peptide was 1MDIAIHHP8 and the last peptide was 168PAVTAAPK175 for human αB crystallin.
Ghosh and Clark, Protein Sci 14: 684-95, 2005. […] The intensity of the blue color in the wells was measured at 450 nm using an ELISA plate-reader (BioTek, Winooski, Vt.). The intensity of the blue color (plotted on the X-axis) was a measure of the interaction between αB crystallin peptides (plotted on the Y-axis) and target proteins. To measure the effect of temperature on the interactions between interactive peptides and the target proteins, the target proteins were heated in a water-bath at 45° C. for fifteen minutes prior to use. Pin arrays are unable to differentiate between monomers, dimers or oligomers of target proteins that exist in solution. Instead, pin arrays are very sensitive detectors of interactions between individual peptides and the entire population (monomers, dimers or oligomers) of specific target proteins that may exist in solution under specific conditions. Each target protein was assayed two to five times. A single pin array was used for all experiments and no change in interactions was observed after more than thirty repetitions. The last three peptides of the protein pin array, 163REEKPAVT170, 165EKPAVTAA172, 167PAVTAAPK174, correspond to the epitope (163REEKPAVTAAPKK175) recognized by the primary antibody for human αB crystallin. A positive reaction is observed for these three peptides in the absence of human αB crystallin as the ligand due to direct binding of the anti-human αB crystallin antibody to these three peptides. The loss of efficiency for the pin array was measured using this assay. The loss of efficiency for the pin array was determined to be <5% by after more than 30 assays.
The pattern of absorbance at λ=450 nm when αB crystallin peptides were assayed with unheated and pre-heated CS was similar to the absorbance pattern obtained with unheated and pre-heated βH/γD crystallin and ADH (FIG. 18). […]

[2] = as provided by manufacturer (Mimotopes); cited from earlier work

| absorbance at 450 nm, interaction with CS [1] | Sequence | effect on the thermal aggregation of βL crystallin (ranking) (βL crystallin) | Hydrophobicity [2] |
| --- | --- | --- | --- |
| – | DRFSVNLDVKHFS | identical and slightly lower than the HG peptide | – |
| – | HGKHEERQDE | strongest effect | – |
| – | ERTIPITRE | identical and slightly lower than the HG peptide | – |
| absorbance maxima | FSVNLDVK [Peptide 38] | – | 0.44 |
| – | LTITSSLSSDGV | identical and slightly lower than the HG peptide | – |
| – | STSLSPFYLRPPSFLRAP | weakest effect | – |
| absorbance maxima | WIRRPFFP [Peptide 5] | – | 0.88 |
| absorbance maxima | LTITSSLS [Peptide 66] | – | 0.7 |
